Assay [1] has as its target 5P_FL2 spike (six-proline FL2 spike with P986 reverted to K986) (SARS-CoV-2) (UniProt P0DTC2). Put plainly: negative-stain electron microscopy.
For assay [2] the target is unchanged. Put plainly: SEC. For orientation: Size exclusion chromatography separates by hydrodynamic size, large species first.
Assay [3] concerns the target VFLIP_D614G spike (VFLIP variant bearing the D614G mutation) (SARS-CoV-2) (UniProt P0DTC2). Put plainly: cryo-EM structure.
Assay [4] has as its target 6P_DS3 spike (six-proline spike with the inter-protomer disulfide Y707C/T883C) (SARS-CoV-2) (UniProt P0DTC2). Put plainly: non-reducing SDS-PAGE.
The target is the same in assay [5]. Put plainly: negative-stain electron microscopy.
Assay [6] has the same target. Put plainly: SEC.

In the case of “5P_FL2 spike (six-proline FL2 spike with P986 reverted to K986) (from UniProt P0DTC2) (domain or fragment)”, the stoichiometry N in assay [1] and in assay [2] was 3 each time.

For the substance “VFLIP_D614G spike (VFLIP variant bearing the D614G mutation) (from UniProt P0DTC2) (domain or fragment)”, the stoichiometry N in assay [3] turned out to be 3.

Turning to “6P_DS3 spike (six-proline spike with the inter-protomer disulfide Y707C/T883C) (from UniProt P0DTC2 13-1208) (domain or fragment)”, the stoichiometry N in assay [4], in assay [5] and in assay [6] was 3 in each case.

For orientation: stoichiometry N means the number of molecules, sites or subunits per partner or assembly.

The record behind these values is paper doi:10.1101/2021.05.06.441046.
